Data on four molecules can be found in US8088387B2, “Method of targeting specific cell populations using cell-binding agent maytansinoid conjugates linked via a non-cleavable linker, said conjugates, and methods of making said conjugates” (Immunogen Inc., priority 2003, dated 2012).

Data set [1] concerns esterase. The data set can be described thus: esterase cleavage of the C-3 ester. It is filed as in vitro ADME. The source says: Some linkers can be cleaved by esterases. Again only certain esters can be cleaved by esterases present inside or outside cells. Esters are formed by the condensation of a carboxylic acid and an alcohol. Simple esters are esters produced with simple alcohols, such as aliphatic alcohols, and small cyclic and small aromatic alcohols.

For data set [2], the system named is L1210 cells. The settings on record: treatment of L1210 cells in vivo; cited from earlier work.
The subject of data set [3] is P388 murine leukemic cell suspension. The settings on record: in vitro; most sensitive line; cited from earlier work.
Data set [4] concerns L1210 murine leukemic cell suspension. The settings on record: in vitro; cited from earlier work.
Data set [5] has as its system LY5178 murine leukemic cell suspension. The settings on record: in vitro; cited from earlier work.
Data set [6] concerns human nasopharyngeal carcinoma cells. The settings on record: cited from earlier work.
Data set [7] relates to human acute lymphoblastic leukemia line C.E.M. The settings on record: cited from earlier work.
Data set [8] relates to P388 lymphocytic leukemia system. The settings on record: in vivo; cited from earlier work.
The subject of data set [9] is L1210 mouse leukemia system. Conditions: cited from earlier work.
Data set [10] deals with Lewis lung carcinoma system. The settings on record: cited from earlier work.
Data set [11] concerns human B-16 melanocarcinoma system. The settings on record: cited from earlier work.
For data set [12] the following is noted: human, in vivo; cited from earlier work.
The nature of data set [13]: plasma clearance of conjugates. Format: in vivo. Conditions: plasma, conjugate, FIG. 11. The source says: This is in sharp contrast to plasma clearance of conjugates prepared with relatively labile disulfide bonds such as huC242-SPP-DM1. […] The non-cleavable SMCC linkage is therefore much more resistant to maytansinoid-linker cleavage activities present in vivo than the SPP-DM1 conjugate. […] This increased exposure could have substantial impact on drug efficacy in some cases.

Data set [14] in a line: acute toxicity test, single intravenous dose. It is filed as in vivo, female CD-1 mice. The method, then: Maytansinoid conjugates prepared with non-cleavable linkers such as SMCC show an unexpected increased tolerability in mice compared with conjugates prepared with cleavable disulfide linkers. An acute toxicity test with a single intravenous dose was carried out in female CD-1 mice. A comparison of the tolerability of a huC242-SMCC-DM1 conjugate (non-cleavable) with huC242 conjugates prepared with linkers containing cleavable disulfide bonds was conducted by monitoring the death of mice (FIGS. 12A and B) and signs of toxicity (FIGS. 12C and D) over a series of four escalating doses of each conjugate. The maximum tolerated dose (MTD) for the SMCC-DM1 conjugate was greater than the highest dose tested (150 mg/kg) while the MTD for the disulfide-linked conjugate SPP-DM1 was in the range of 45-90 mg/kg.

The test system of data set [15] is COLO205 cells. The data set is described as follows: cell cycle arrest by flow cytometry. Format: cell-based, human. The settings on record: 30 hours post-treatment. The method, then:
Maytansinoid conjugates are thought to impart their cell destroying activity through the inhibition of microtubule polymerization. This inhibition of microtubule polymerization leads to an arrest of the cell cycle principally at G2/M. The antigen-dependent arrest of cells at G2/M by antibody-maytansinoid conjugates can be monitored by flow cytometry analysis (FIG. 13). Treatment of COLO205 cells with huC242-SPP-DM1 or huC242-SMCC-DM1 conjugate results in a complete G2/M arrest by 6-10 hours. […] The difference in the durability of the activity of these two conjugates is also reflected in percentage of dead cells at the 30 hour time point, as judged by a dye exclusion assay using trypan blue.
A general note: Flow cytometry measures light scatter and fluorescence of single cells or particles in a stream.

The subject of data set [16] is COLO 205 cell line. The data set is described as follows: cell destroying activity, antigen-positive cells (bystander study). It is filed as cell-based, human. The settings on record: COLO 205 cultured separately. The source says:
(§1) An additional aspect of conjugates prepared with non-cleavable linkers compared to conjugates that have cleavable disulfide linkers is the absence of activity toward antigen-negative cells when in close proximity to antigen-positive cells, termed here the bystander effect. That is, the conjugates prepared with non-cleavable linkers have minimal bystander activity. […] This minimal bystander activity of the non-cleavable conjugate, as measured in this in vitro assay, may contribute to the increased tolerability of conjugate with non-cleavable linkers observed in acute toxicity studies.

In data set [17] the test system is Namalwa cells. The data set is described as follows: cell destroying activity, antigen-negative cells (bystander study). Format: cell-based.
Text: as §1

The nature of data set [18]: Pharmacokinetic Studies of huC242-SPP-DM1 and huC242-SCC-DM1 conjugates inCD-1 Mice Plasma clearance curves and Pharmacokinetic parameters. The source says:
Table printed on a drawing sheet, FIG. 11
Title: Pharmacokinetic Studies of huC242-SPP-DM1 and huC242-SCC-DM1 conjugates inCD-1 Mice Plasma clearance curves and Pharmacokinetic parameters
First reader's note: Rows without -DM1 (huC242-SMCC, huC242-SPP) appear to be the antibody component of the same conjugates, as in the plot legend; study in CD-1 mice.

Data set [19] in a line: in vitro clonogenic / indirect cytotoxicity assays, cell line not given. Format: cell-based. The settings on record: for cytotoxicity in clonogenic assays in vitro: FIGS. 9, 22, 28. The source says:
Cell-binding agent maytansinoid conjugates of the invention can be evaluated for their ability to suppress proliferation of various cell lines in vitro. For example, cell lines such as the human colon carcinoma line COLO205, the human melanoma cell line A375, the human myeloid leukemia cell line HL60, the human breast carcinoma line SKBR3, or the human epidermoid carcinoma cell line KB can be used for the assessment of cytotoxicity of these conjugates. Cells to be evaluated can be exposed to the compounds for 24 hours and the surviving fractions of cells measured in direct assays by known methods. (See, e.g. Goldmacher et al., 135 J. Immunol. 3648-3651 (1985), and Goldmacher et al., 102 J. Cell Biol. 1312-1319 (1986).) IC50 values can then be calculated from the results of the assays.

Data set [20] relates to COLO 205 cells. The data set can be described thus: indirect FACS binding assay on COLO 205 cells. The settings on record: higher than free huC242 antibody; COLO 205 cells. Details: species or system human. The method, then:
The inventors carried out binding and cytotoxicity studies on the huC242-non-S-containing non-cleavable linker-DM1 conjugate. First, the binding affinities of huC242 antibody, huC242-SMNP-DM3, and huC242-non-S-containing non-cleavable linker-DM1 to COLO 205 cells were compared. 5×10^3 cells per well were used, with a three hour primary incubation on ice. The huC242-non-S-containing non-cleavable linker-DM1 conjugate had about a two-fold higher apparent dissociation constant than free antibody (see FIG. 23).

Some results are limits rather than exact numbers.

With `COc1cc2cc(c1Cl)N(C)C(=O)C[C@H](OC(=O)[C@H](C)N(C)C(C)=O)[C@]1(C)O[C@H]1[C@H](C)[C@@H]1C[C@@](O)(NC(=O)O1)[C@H](OC)/C=C/C=C(\C)C2` [Maytansine], in [1], the “cleavage of the ester at C-3 by esterases” value is listed as “no esterase that cleaved the ester at C-3”. Moreover, the “cells accumulating in mitosis” value in data set [2] is 67%. Besides, the inhibitory doses in data set [3], in data set [4] and in data set [5] was 10^−3 to 10^−1 μg/ml throughout. Also, the “inhibition of in vitro growth” value in data set [6] is given as “active inhibitor”. The lowest inhibitory concentration in data set [7] is listed as 10^−7 μg/ml. Further, the “dosage range over which tumor growth was inhibited” value in data set [8] was 50- to 100 fold. For the same molecule, the “inhibitory activity in vivo” value in data set [9], in data set [10] and in [11] was “significant inhibitory activity” in each case. The “clinical outcome / adverse effects” value in data set [12] is recorded as “not favorable due to a number of side effects”.

B1: huC242-SPP-DM1: huC242 DM1 conjugate with relatively labile cleavable disulfide linker SPP (conjugate, chains of the INN, looked up)
VH: QVQLVQSGAEVKKPGETVKISCKASDYTFTYYGMNWVKQAPGQGLKWMGWIDTTTGEPTYAQKFQGRIAFSLETSASTAYLQIKSLKSEDTATYFCARRGPYNWYFDVWGQGTTVTVSS
VL: DIVMTQSPLSVPVTPGEPVSISCRSSKSLLHSNGNTYLYWFLQRPGQSPQLLIYRMSNLVSGVPDRFSGSGSGTAFTLRISRVEAEDVGVYYCLQHLEYPFTFGPGTKLELK
modifications: DM1 via SPP disulfide linker
On to B1, for which, in [13], the half-life for clearance fell in the range of 40 to 50 h. For the same molecule, the “time by which lethal toxicity was observed for all mice” value in data set [14] (at 150 mg/kg, post-treatment) was at most 96 h. In [14] (at 150 mg/kg, single intravenous dose), the “survival / lethal toxicity” value is reported as “lethal toxicity was observed for all mice”. The “maximum tolerated dose (MTD)” value in data set [14] (single intravenous dose, female CD-1 mice) lay in the range of 45 to 90 mg/kg. The “durability of cell cycle arrest” value in data set [15] was “escape from cell cycle arrest and reinitiate cell division”. Moreover, the cell destroying activity entry in [16] is on record as “potent cell destroying activity”. Moreover, in [17] (Namalwa cultured separately), the cell destroying activity entry is given as “no activity”. Moreover, the “bystander cell destroying activity toward Namalwa cells” value in data set [17] (co-cultures of COLO 205 and Namalwa cells) is recorded as “dramatic cell destroying activity”. In addition, in [18], the “AUC |” value was 9205.7 µg·h/mL, the “CL |” value is 1.1 mL/h/kg, the “Cmax |” value came to 191.4 µg/mL and the “Vss |” value is 0.0926 L/kg. Further, the “t1/2 | hour” value in [18] was found to be 49.8 h.

B2: huC242-SIAB-DM1: huC242 conjugate of DM1 synthesized with the non-cleavable linker SIAB (conjugate, chains of the INN, looked up)
VH: B1 VH
VL: B1 VL
modifications: DM1 via SIAB linker
As to B2, the “cytotoxicity in clonogenic assays in vitro” value in data set [19] is “potent and antigen-specific cytotoxicity”.

B3: huC242-non-S-containing non-cleavable linker-DM1: huC242 conjugated with a maytansinoid active ester forming a non-sulfur-containing non-cleavable linker (conjugate, chains of the INN, looked up)
VH: B1 VH
VL: B1 VL
modifications: DM1 via non-sulfur non-cleavable linker
What is called IC50 is the concentration needed to halve the response being measured. Turning to B3, the “apparent dissociation constant relative to free antibody” value in data set [20] is “two”. Also, in data set [19] (FIG. 22), the “in vitro cytotoxicity compared with huC242-SMNP-DM3” value was “comparable to huC242-SMNP-DM3”. The “cytotoxicity in clonogenic assays in vitro” value in data set [19] is “potent and antigen-specific cytotoxicity”. Also, the IC50 in data set [19] (in vitro cytotoxicity, FIG. 22) came out at 7 pM.
